This is an account of results in patent publication EP0866131A2.

In this assay the target is human Fas antigen on HPB-ALL cells (human) (UniProt P25445). As to the kind of experiment: cell-based or functional assay.
Sequence of UniProt P25445 (P25445 26-335): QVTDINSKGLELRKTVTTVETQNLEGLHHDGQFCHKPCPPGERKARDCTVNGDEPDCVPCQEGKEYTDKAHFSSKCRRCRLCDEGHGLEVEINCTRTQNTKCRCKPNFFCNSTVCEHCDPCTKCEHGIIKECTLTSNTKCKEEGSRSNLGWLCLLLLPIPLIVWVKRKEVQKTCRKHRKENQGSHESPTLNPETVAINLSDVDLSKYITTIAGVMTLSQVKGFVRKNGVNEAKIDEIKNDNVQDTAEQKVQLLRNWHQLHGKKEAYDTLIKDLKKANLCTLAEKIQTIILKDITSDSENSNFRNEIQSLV

For the substance “mouse anti-human Fas monoclonal antibody CH11”, the ED50 (ng/ml), cytotoxic activity on HPB-ALL cells came out at 10.7 ng/mL.
